The target of data set [1] is 4E-BP1 (Calbiochem), Q13541.
4E-BP1 (Calbiochem), Q13541, sequence (Q13541 whole entry): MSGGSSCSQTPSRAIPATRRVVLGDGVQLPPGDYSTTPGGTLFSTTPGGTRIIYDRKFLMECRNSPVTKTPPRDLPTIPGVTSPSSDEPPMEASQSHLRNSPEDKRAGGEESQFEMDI

His-S6K1C, P23443, sequence (P23443 332-502): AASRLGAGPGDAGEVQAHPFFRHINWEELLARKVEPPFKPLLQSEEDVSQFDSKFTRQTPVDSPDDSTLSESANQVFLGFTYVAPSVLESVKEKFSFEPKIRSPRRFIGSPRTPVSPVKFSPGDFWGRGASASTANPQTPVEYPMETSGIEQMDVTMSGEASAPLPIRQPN

B1: FLAG-mTORβ (protein)
chain: MLGTGPAAATTAATTSSNVSVLQKKVTEDLSKTLLMYTVPAVQGFFRSISLSRGNNLQDTLRVLTLWFDYGHWPDVNEALVEGVKAIQIDTWLQVIPQLIARIDTPRPLVGRLIHQLLTDIGRYHPQALIYPLTVASKSTTTARHNAANKILKNMCEHSNTLVQQAMMVSEELIRVAILWHEMWHEGLEEASRLYFGERNVKGMFEVLEPLHAMMERGPQTLKETSFNQAYGRDLMEAQEWCRKYMKSGNVKDLTQAWDLYYHVFRRISKQLPQLTSLELQYVSPKLLMCRDLELAVPGTYDPNQPIIRIQSIAPSLQVITSKQRPRKLTLMGSNGHEFVFLLKGHEDLRQDERVMQLFGLVNTLLANDPTSLRKNLSIQRYAVIPLSTNSGLIGWVPHCDTLHALIRDYREKKKILLNIEHRIMLRMAPDYDHLTLMQKVEVFEHAVNNTAGDDLAKLLWLKSPSSEVWFDRRTNYTRSLAVMSMVGYILGLGDRHPSNLMLDRLSGKILHIDFGDCFEVAMTREKFPEKIPFRLTRMLTNAMEVTGLDGNYRITCHTVMEVLREHKDSVMAVLEAFVYDPLLNWRLMDTNTKGNKRSRTRTDSYSAGQSVEILDGVELGEPAHKKTGTTVPESIHSFIGDGLVKPEALNKKAIQIINRVRDKLTGRDFSHDDTLDVPTQVELLIKQATSHENLCQCYIGWCPFW
Turning to B1, the “mTOR in vitro kinase assay; immunoblot with phosphospecific antibody pT389-S6K1” value with His-S6K1C, P23443 was “mTORβ can phosphorylate both S6K1 and 4E-BP1 in vitro, but to a lesser extent than mTORα”. In data set [1], the “mTOR in vitro kinase assay; immunoblot with phosphospecific antibody pS65-4E-BP1” value was “mTORβ can phosphorylate both S6K1 and 4E-BP1 in vitro, but to a lesser extent than mTORα”.

For the origin of these results see patent US20170145391.
